The results in this text go back to PMC3351156 (Nucleic Acids Research, 2012).

B1: MDC1^27–138 (MDC1 FHA domain, residues 27–138) (domain or fragment, UniProt Q14676 27-138, looked up)
chain: NVEPVGRLHIFSGAHGPEKDFPLHLGKNVVGRMPDCSVALPFPSISKQHAEIEILAWDKAPILRDCGSLNGTQILRPPKVLSPGVSHRLRDQELILFADLLCQYHRLDVSLP
B2: pT4-MDC1^2–133 (T4-phosphorylated MDC1^2–133) (domain or fragment, UniProt Q14676 2-133, looked up)
chain: EDTQAIDWDVEEEEETEQSSESLRCNVEPVGRLHIFSGAHGPEKDFPLHLGKNVVGRMPDCSVALPFPSISKQHAEIEILAWDKAPILRDCGSLNGTQILRPPKVLSPGVSHRLRDQELILFADLLCQYHRL
modifications: phosphothreonine at 4
B3: pT4-MDC1^2–133-R58A (domain or fragment, UniProt Q14676 2-133, looked up)
chain: B2 chain with R57A
modifications: phosphothreonine at 4
B4: MDC1^2–133 (unphosphorylated) (domain or fragment, UniProt Q14676 2-133, looked up)
chain: B2 chain

Data set [1] has as its target Mutator 2 FHA domain (Drosophila melanogaster) (Drosophila melanogaster).
Data set [2] concerns the molecule itself. The data set is described as follows: SEC. (SEC sorts molecules by how far they enter the pores of the column.)
Data set [3] concerns the molecule itself. The data set is described as follows: SEC. This is another data set of the same source.
Data set [4] deals with the molecule itself. The data set can be described thus: AUC.
Data set [5] deals with the molecule itself. The data set is described as follows: SEC. The source holds these as a separate data set.
Data set [6] deals with the molecule itself. The data set can be described thus: AUC. This is another data set of the same source.
The target in a further data set is T1, SMT3-MDC1^2–133-T98A (UniProt Q14676 2-133, T98A).
T1 sequence (looked up): B2 chain with T97A
The data set is described as follows: ITC.

Data set [7] has as its target B1. The data set is described as follows: ITC.
Data set [8] has as its target B4. The data set is described as follows: AUC.

Substitutions are numbered along the chain they refer to. Where two headings read alike, the source gives them in different places. Non-standard residues stand in square brackets, D forms with d. No end group written: not given here. pT = C[C@@H](OP(=O)(O)O)[C@H](N)C(=O)O

For orientation: stoichiometry N means a count of units in the complex or per binding partner. For “Mutator 2 FHA domain (Drosophila melanogaster) (domain or fragment)”, the stoichiometry N in [1] was 2.
As to NIIGRHTNCDVTLPAQSVSKKHAIIEVEADCHTLCDQGSLNKTRRGKAAI (domain or fragment) [FHA domain of Xenopus tropicalis MDC1], in the data set “SEC [2]”, the “stoichiometry N” value was determined as 2.
Turning to B1, the “stoichiometry N” value in the data set “SEC [3]” worked out at 2.
One may read the Kd as the free concentration of one partner at which half of the binding sites on the other are occupied at equilibrium, for simple one-to-one binding. As to B2, binding in “AUC [4]” was characterised by a dissociation constant (Kd) of 0.035 µM.
As to B3, in “SEC [5]”, the binding result is recorded as “binds”.
Regarding B4, the Kd came out at 16 µM in “AUC [6]” and 9.2 µM in “AUC [4]”.
Regarding MED[pT]QAID [phosphopeptide MED(pT)QAID (pT4-8P)], the “fold reduction of binding affinity against SMT3-MDC1^2–133” value in the data set with SMT3-MDC1^2–133-T98A stood at 7 fold. Further, the values for the Kd in data set [7] and in data set [8] were 40 ± 3 µM and 20 µM, respectively.
